# B1: library; numbered along this chain (parent)
# chain: MRKPRAAVGSGHRKQAASQEGRQKHAKNNSQAKPSACDGLARQPEEVVLQASVSSYHLFRDVAEVTAFRGSLLSWYDQEKRDLPWRRRAEDEMDLDRRAYAVWVSEVMLQQTQVATVINYYTGWMQKWPTLQDLASASLEEVNQLWAGLGYYSRGRRLQEGARKVVEELGGHMPRTAETLQQLLPGVGRYTAGAIASIAFGQATGVVDGNVARVLCRVRAIGADPSSTLVSQQLWGLAQQLVDPARPGDFNQAAMELGATVCTPQRPLCSQCPVESLCRARQRVEQEQLLASGSLSGSPDVEECAPNTGQCHLCLPPSEPWDQTLGVVNFPRKASRKPPREESSATCVLEQPGALGAQILLVQRPNSGLLAGLWEFPSVTWEPSEQLQRKALLQELQRWAGPLPATHLRHLGEVVHTFSHIKLTYQVYGLALEGQTPVTTVPPGARWLTQEEFHTAAVSTAMKKVFRVYQGQQPGTCMGSKRSQVSSPCSRKKPRMGQQVLDNFFRSHISTDAHSLNSAAQ
# Variants of: B1
# Test: 8OG:A repair function score (normalized; synonymous = 0, nonsense = -1) (normalized log-likelihood score); higher = more repair activity (WT-like)
# Details: with 8OG:A DNA repair reporter (GFP) in HEK-293 MUTYH KO cells
# Protocol: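 Saturation mutagenesis (NNN codon scan) of the MUTYH cDNA (521-aa nuclear isoform NM_001048174.1 / NP_001041639), stably expressed under doxycycline induction in HEK-293 MUTYH knockout cells. Cells were co-transfected with an 8OG:A-bearing GFP repair reporter plus mCherry and sorted 72 h later into GFP+ and GFP− bins, three replicates per tile. The Rosace log2 enrichment (GFP+ vs GFP−) was converted per tile to a normalized function score with synonymous variants centered at 0 and nonsense variants (codons 1-471) at -1; low-abundance variants were removed.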
row,Variant,8OG:A repair function score
1,MRKPRAAVGSGHRKQAASQEGRQKHAKNNSQAKPSACDGLARQPEEVVLQASVSSYHLFRDVAEVTAFRGSLLSWYDQEKRDLPWRRRAEDEMDLDRRAYAVWVSEVMLQQTQVATVINYYTGEMQKWPTLQDLASASLEEVNQLWAGLGYYSRGRRLQEGARKVVEELGGHMPRTAETLQQLLPGVGRYTAGAIASIAFGQATGVVDGNVARVLCRVRAIGADPSSTLVSQQLWGLAQQLVDPARPGDFNQAAMELGATVCTPQRPLCSQCPVESLCRARQRVEQEQLLASGSLSGSPDVEECAPNTGQCHLCLPPSEPWDQTLGVVNFPRKASRKPPREESSATCVLEQPGALGAQILLVQRPNSGLLAGLWEFPSVTWEPSEQLQRKALLQELQRWAGPLPATHLRHLGEVVHTFSHIKLTYQVYGLALEGQTPVTTVPPGARWLTQEEFHTAAVSTAMKKVFRVYQGQQPGTCMGSKRSQVSSPCSRKKPRMGQQVLDNFFRSHISTDAHSLNSAAQ [W124E],-1.01
2,MRKPRAAVGSGHRKQAASQEGRQKHAKNNSQAKPSACDGLARQPEEVVLQASVSSYHLFRDVAEVTAFRGSLLSWYDQEKRDLPWRRRAEDEMDLDRRAYAVWVSEVMLQQTQVATVINYYTGCMQKWPTLQDLASASLEEVNQLWAGLGYYSRGRRLQEGARKVVEELGGHMPRTAETLQQLLPGVGRYTAGAIASIAFGQATGVVDGNVARVLCRVRAIGADPSSTLVSQQLWGLAQQLVDPARPGDFNQAAMELGATVCTPQRPLCSQCPVESLCRARQRVEQEQLLASGSLSGSPDVEECAPNTGQCHLCLPPSEPWDQTLGVVNFPRKASRKPPREESSATCVLEQPGALGAQILLVQRPNSGLLAGLWEFPSVTWEPSEQLQRKALLQELQRWAGPLPATHLRHLGEVVHTFSHIKLTYQVYGLALEGQTPVTTVPPGARWLTQEEFHTAAVSTAMKKVFRVYQGQQPGTCMGSKRSQVSSPCSRKKPRMGQQVLDNFFRSHISTDAHSLNSAAQ [W124C],-0.794
3,MRKPRAAVGSGHRKQAASQEGRQKHAKNNSQAKPSACDGLARQPEEVVLQASVSSYHLFRDVAEVTAFRGSLLSWYDQEKRDLPWRRRAEDEMDLDRRAYAVWVSEVMLQQTQVATVINYYTGDMQKWPTLQDLASASLEEVNQLWAGLGYYSRGRRLQEGARKVVEELGGHMPRTAETLQQLLPGVGRYTAGAIASIAFGQATGVVDGNVARVLCRVRAIGADPSSTLVSQQLWGLAQQLVDPARPGDFNQAAMELGATVCTPQRPLCSQCPVESLCRARQRVEQEQLLASGSLSGSPDVEECAPNTGQCHLCLPPSEPWDQTLGVVNFPRKASRKPPREESSATCVLEQPGALGAQILLVQRPNSGLLAGLWEFPSVTWEPSEQLQRKALLQELQRWAGPLPATHLRHLGEVVHTFSHIKLTYQVYGLALEGQTPVTTVPPGARWLTQEEFHTAAVSTAMKKVFRVYQGQQPGTCMGSKRSQVSSPCSRKKPRMGQQVLDNFFRSHISTDAHSLNSAAQ [W124D],-0.574
4,MRKPRAAVGSGHRKQAASQEGRQKHAKNNSQAKPSACDGLARQPEEVVLQASVSSYHLFRDVAEVTAFRGSLLSWYDQEKRDLPWRRRAEDEMDLDRRAYAVWVSEVMLQQTQVATVINYYTGAMQKWPTLQDLASASLEEVNQLWAGLGYYSRGRRLQEGARKVVEELGGHMPRTAETLQQLLPGVGRYTAGAIASIAFGQATGVVDGNVARVLCRVRAIGADPSSTLVSQQLWGLAQQLVDPARPGDFNQAAMELGATVCTPQRPLCSQCPVESLCRARQRVEQEQLLASGSLSGSPDVEECAPNTGQCHLCLPPSEPWDQTLGVVNFPRKASRKPPREESSATCVLEQPGALGAQILLVQRPNSGLLAGLWEFPSVTWEPSEQLQRKALLQELQRWAGPLPATHLRHLGEVVHTFSHIKLTYQVYGLALEGQTPVTTVPPGARWLTQEEFHTAAVSTAMKKVFRVYQGQQPGTCMGSKRSQVSSPCSRKKPRMGQQVLDNFFRSHISTDAHSLNSAAQ [W124A],-0.577
5,MRKPRAAVGSGHRKQAASQEGRQKHAKNNSQAKPSACDGLARQPEEVVLQASVSSYHLFRDVAEVTAFRGSLLSWYDQEKRDLPWRRRAEDEMDLDRRAYAVWVSEVMLQQTQVATVINYYTGGMQKWPTLQDLASASLEEVNQLWAGLGYYSRGRRLQEGARKVVEELGGHMPRTAETLQQLLPGVGRYTAGAIASIAFGQATGVVDGNVARVLCRVRAIGADPSSTLVSQQLWGLAQQLVDPARPGDFNQAAMELGATVCTPQRPLCSQCPVESLCRARQRVEQEQLLASGSLSGSPDVEECAPNTGQCHLCLPPSEPWDQTLGVVNFPRKASRKPPREESSATCVLEQPGALGAQILLVQRPNSGLLAGLWEFPSVTWEPSEQLQRKALLQELQRWAGPLPATHLRHLGEVVHTFSHIKLTYQVYGLALEGQTPVTTVPPGARWLTQEEFHTAAVSTAMKKVFRVYQGQQPGTCMGSKRSQVSSPCSRKKPRMGQQVLDNFFRSHISTDAHSLNSAAQ [W124G],-0.892
6,MRKPRAAVGSGHRKQAASQEGRQKHAKNNSQAKPSACDGLARQPEEVVLQASVSSYHLFRDVAEVTAFRGSLLSWYDQEKRDLPWRRRAEDEMDLDRRAYAVWVSEVMLQQTQVATVINYYTGFMQKWPTLQDLASASLEEVNQLWAGLGYYSRGRRLQEGARKVVEELGGHMPRTAETLQQLLPGVGRYTAGAIASIAFGQATGVVDGNVARVLCRVRAIGADPSSTLVSQQLWGLAQQLVDPARPGDFNQAAMELGATVCTPQRPLCSQCPVESLCRARQRVEQEQLLASGSLSGSPDVEECAPNTGQCHLCLPPSEPWDQTLGVVNFPRKASRKPPREESSATCVLEQPGALGAQILLVQRPNSGLLAGLWEFPSVTWEPSEQLQRKALLQELQRWAGPLPATHLRHLGEVVHTFSHIKLTYQVYGLALEGQTPVTTVPPGARWLTQEEFHTAAVSTAMKKVFRVYQGQQPGTCMGSKRSQVSSPCSRKKPRMGQQVLDNFFRSHISTDAHSLNSAAQ [W124F],0.00143
7,MRKPRAAVGSGHRKQAASQEGRQKHAKNNSQAKPSACDGLARQPEEVVLQASVSSYHLFRDVAEVTAFRGSLLSWYDQEKRDLPWRRRAEDEMDLDRRAYAVWVSEVMLQQTQVATVINYYTGKMQKWPTLQDLASASLEEVNQLWAGLGYYSRGRRLQEGARKVVEELGGHMPRTAETLQQLLPGVGRYTAGAIASIAFGQATGVVDGNVARVLCRVRAIGADPSSTLVSQQLWGLAQQLVDPARPGDFNQAAMELGATVCTPQRPLCSQCPVESLCRARQRVEQEQLLASGSLSGSPDVEECAPNTGQCHLCLPPSEPWDQTLGVVNFPRKASRKPPREESSATCVLEQPGALGAQILLVQRPNSGLLAGLWEFPSVTWEPSEQLQRKALLQELQRWAGPLPATHLRHLGEVVHTFSHIKLTYQVYGLALEGQTPVTTVPPGARWLTQEEFHTAAVSTAMKKVFRVYQGQQPGTCMGSKRSQVSSPCSRKKPRMGQQVLDNFFRSHISTDAHSLNSAAQ [W124K],-0.931
8,MRKPRAAVGSGHRKQAASQEGRQKHAKNNSQAKPSACDGLARQPEEVVLQASVSSYHLFRDVAEVTAFRGSLLSWYDQEKRDLPWRRRAEDEMDLDRRAYAVWVSEVMLQQTQVATVINYYTGIMQKWPTLQDLASASLEEVNQLWAGLGYYSRGRRLQEGARKVVEELGGHMPRTAETLQQLLPGVGRYTAGAIASIAFGQATGVVDGNVARVLCRVRAIGADPSSTLVSQQLWGLAQQLVDPARPGDFNQAAMELGATVCTPQRPLCSQCPVESLCRARQRVEQEQLLASGSLSGSPDVEECAPNTGQCHLCLPPSEPWDQTLGVVNFPRKASRKPPREESSATCVLEQPGALGAQILLVQRPNSGLLAGLWEFPSVTWEPSEQLQRKALLQELQRWAGPLPATHLRHLGEVVHTFSHIKLTYQVYGLALEGQTPVTTVPPGARWLTQEEFHTAAVSTAMKKVFRVYQGQQPGTCMGSKRSQVSSPCSRKKPRMGQQVLDNFFRSHISTDAHSLNSAAQ [W124I],-0.714
9,MRKPRAAVGSGHRKQAASQEGRQKHAKNNSQAKPSACDGLARQPEEVVLQASVSSYHLFRDVAEVTAFRGSLLSWYDQEKRDLPWRRRAEDEMDLDRRAYAVWVSEVMLQQTQVATVINYYTGLMQKWPTLQDLASASLEEVNQLWAGLGYYSRGRRLQEGARKVVEELGGHMPRTAETLQQLLPGVGRYTAGAIASIAFGQATGVVDGNVARVLCRVRAIGADPSSTLVSQQLWGLAQQLVDPARPGDFNQAAMELGATVCTPQRPLCSQCPVESLCRARQRVEQEQLLASGSLSGSPDVEECAPNTGQCHLCLPPSEPWDQTLGVVNFPRKASRKPPREESSATCVLEQPGALGAQILLVQRPNSGLLAGLWEFPSVTWEPSEQLQRKALLQELQRWAGPLPATHLRHLGEVVHTFSHIKLTYQVYGLALEGQTPVTTVPPGARWLTQEEFHTAAVSTAMKKVFRVYQGQQPGTCMGSKRSQVSSPCSRKKPRMGQQVLDNFFRSHISTDAHSLNSAAQ [W124L],-0.378
10,MRKPRAAVGSGHRKQAASQEGRQKHAKNNSQAKPSACDGLARQPEEVVLQASVSSYHLFRDVAEVTAFRGSLLSWYDQEKRDLPWRRRAEDEMDLDRRAYAVWVSEVMLQQTQVATVINYYTGMMQKWPTLQDLASASLEEVNQLWAGLGYYSRGRRLQEGARKVVEELGGHMPRTAETLQQLLPGVGRYTAGAIASIAFGQATGVVDGNVARVLCRVRAIGADPSSTLVSQQLWGLAQQLVDPARPGDFNQAAMELGATVCTPQRPLCSQCPVESLCRARQRVEQEQLLASGSLSGSPDVEECAPNTGQCHLCLPPSEPWDQTLGVVNFPRKASRKPPREESSATCVLEQPGALGAQILLVQRPNSGLLAGLWEFPSVTWEPSEQLQRKALLQELQRWAGPLPATHLRHLGEVVHTFSHIKLTYQVYGLALEGQTPVTTVPPGARWLTQEEFHTAAVSTAMKKVFRVYQGQQPGTCMGSKRSQVSSPCSRKKPRMGQQVLDNFFRSHISTDAHSLNSAAQ [W124M],-1.62
11,MRKPRAAVGSGHRKQAASQEGRQKHAKNNSQAKPSACDGLARQPEEVVLQASVSSYHLFRDVAEVTAFRGSLLSWYDQEKRDLPWRRRAEDEMDLDRRAYAVWVSEVMLQQTQVATVINYYTGHMQKWPTLQDLASASLEEVNQLWAGLGYYSRGRRLQEGARKVVEELGGHMPRTAETLQQLLPGVGRYTAGAIASIAFGQATGVVDGNVARVLCRVRAIGADPSSTLVSQQLWGLAQQLVDPARPGDFNQAAMELGATVCTPQRPLCSQCPVESLCRARQRVEQEQLLASGSLSGSPDVEECAPNTGQCHLCLPPSEPWDQTLGVVNFPRKASRKPPREESSATCVLEQPGALGAQILLVQRPNSGLLAGLWEFPSVTWEPSEQLQRKALLQELQRWAGPLPATHLRHLGEVVHTFSHIKLTYQVYGLALEGQTPVTTVPPGARWLTQEEFHTAAVSTAMKKVFRVYQGQQPGTCMGSKRSQVSSPCSRKKPRMGQQVLDNFFRSHISTDAHSLNSAAQ [W124H],-0.678
12,MRKPRAAVGSGHRKQAASQEGRQKHAKNNSQAKPSACDGLARQPEEVVLQASVSSYHLFRDVAEVTAFRGSLLSWYDQEKRDLPWRRRAEDEMDLDRRAYAVWVSEVMLQQTQVATVINYYTYWMQKWPTLQDLASASLEEVNQLWAGLGYYSRGRRLQEGARKVVEELGGHMPRTAETLQQLLPGVGRYTAGAIASIAFGQATGVVDGNVARVLCRVRAIGADPSSTLVSQQLWGLAQQLVDPARPGDFNQAAMELGATVCTPQRPLCSQCPVESLCRARQRVEQEQLLASGSLSGSPDVEECAPNTGQCHLCLPPSEPWDQTLGVVNFPRKASRKPPREESSATCVLEQPGALGAQILLVQRPNSGLLAGLWEFPSVTWEPSEQLQRKALLQELQRWAGPLPATHLRHLGEVVHTFSHIKLTYQVYGLALEGQTPVTTVPPGARWLTQEEFHTAAVSTAMKKVFRVYQGQQPGTCMGSKRSQVSSPCSRKKPRMGQQVLDNFFRSHISTDAHSLNSAAQ [G123Y],-0.191

# Reference: the supplement of paper PMC11908140
